Assay results published in PMC5787804, “Communication between N terminus and loop2 tunes Orai activation” (The Journal of Biological Chemistry, 2017).

Target: T1, Orai3-L2 (aa 111–161, mutation C118G) (human, UniProt Q9BRQ5 111-161, C118G, conjugated to amino-functionalized AFM cantilever tips via a flexible NHS-PEG18-acetal cross-linker)
T1 construct: human Orai3 loop2, aa 111–161; also called Orai3-loop2; source: synthetic peptide (custom-synthesized, >95% purity, Synpeptide)
Assay: AFM single-molecule force spectroscopy; loop2 peptide tethered to the cantilever tip via a PEG linker, Orai1-NT peptide immobilised on silicon chips; room temperature, HBS buffer (150 mM NaCl, 5 mM Hepes); pulling velocity 50-8000 nm/s; koff from the Bell-Evans single energy barrier model
Settings: both partners purified

- binding result: binds
B1: Orai1-NT 70–91 (peptide)
peptide: SMQALSWRKLYLSRAKLKASSRC
modifications: added C-terminal cysteine for site-specific coupling; immobilized on silicon chips via NHS-PEG27-maleimide linkers
notes: human Orai1 N terminus, aa 70–91; added C-terminal cysteine for site-specific coupling (told in words); also called Orai1 70–91; non-truncated Orai1 NT; source: synthetic peptide (custom-synthesized, >95% purity, DgPeptides)
